According to patent US20140186363A1 (UNIVERSITY OF ZURICH, published 2014):

Experiments:
[1] = target: T1, MAGEA3 (human, UniProt P43357 1-314); experiment: ELISA, plate coated with recombinant MAGEA3, serial dilution of antibody
T1 construct: also called recombinant MAGEA3; MAGEA3-protein

[2] = target: T2, MAGEA4 (UniProt P43358 1-317, limits assumed); experiment: Western blot of recombinant protein, anti-human IgG-HRP
T2 construct: also called recombinant MAGEA4-protein; CT1.4
T2 sequence (looked up): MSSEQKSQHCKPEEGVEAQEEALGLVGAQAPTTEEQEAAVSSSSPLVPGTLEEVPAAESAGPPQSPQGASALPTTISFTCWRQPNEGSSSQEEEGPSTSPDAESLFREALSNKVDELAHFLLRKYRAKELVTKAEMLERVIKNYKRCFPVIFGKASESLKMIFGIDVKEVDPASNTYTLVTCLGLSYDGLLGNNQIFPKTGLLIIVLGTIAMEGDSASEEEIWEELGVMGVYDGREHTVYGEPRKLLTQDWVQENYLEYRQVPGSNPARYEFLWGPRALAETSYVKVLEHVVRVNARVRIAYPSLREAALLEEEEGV
Description: Recombinant MAGEA3- and recombinant MAGEA4-protein were separated in SDS-PAGE and blotted onto membranes. Membranes were incubated with human antibodies 122G3 or 32H2. Binding of human antibodies to proteins on the membrane was evaluated using an HRP-labeled goat anti human IgG (Jackson Immunoresearch, Milan Analytica AG, Rheinfelden, Switzerland). The results are depicted in FIG. 3.

[3] = target: T3, MAGEA3 peptide no 9; experiment: peptide ELISA (coated 20mer)
T3 construct: also called MAGEA3 aa 81-100
T3 peptide: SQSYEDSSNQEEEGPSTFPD
Description: (§1) 20mer peptides spanning the entire MAGEA3 protein with 10 aa overlaps shared by each adjacent peptide (Peptides&Elephants, Nuthetal, Germany) were used to coat Maxisorp ELISA plates (Nunc, Rochester, N.Y.). As control a 20mer peptide representing amino acids 40-21 from the NY-ESO-1 protein was used (rev). The numbering of amino acids of MAGEA3 is based on SEQ ID No:41.
(§2) Human recombinant antibody was used at a concentration of 1 μg/ml. Bound human antibody was detected using horseradish peroxidase-conjugated goat anti-human IgG Fc-gamma specific antibodies (Jackson ImmunoResearch, Europe Ltd., Cambridgeshire, UK).

[4] = target: T4, MAGEA3 peptide no 20; experiment: peptide ELISA (coated 20mer)
T4 construct: also called MAGEA3 aa 191-210
T4 peptide: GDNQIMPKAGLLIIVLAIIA
Description: as §1, §2

[5] = target: T5, MAGEA3 peptide no 25; experiment: peptide ELISA (coated 20mer)
T5 construct: also called MAGEA3 aa 241-260
T5 peptide: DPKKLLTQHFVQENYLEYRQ
Description: as §1, §2

[6] = target: T6, MAGEA3 peptide no 6; experiment: peptide ELISA (coated 20mer)
T6 construct: also called MAGEA3 aa 51-70
T6 peptide: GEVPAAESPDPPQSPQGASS
Description: as §1, §2

[7] = target: T7, MAGEA3 peptide no 30; experiment: peptide ELISA (coated 20mer)
T7 construct: also called MAGEA3 aa 291-310
T7 peptide: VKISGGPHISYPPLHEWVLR
Description: as §1, §2

[8] = target: T8, MAGEA3 peptide no 22; experiment: peptide ELISA (coated 20mer)
T8 construct: also called MAGEA3 aa 211-230
T8 peptide: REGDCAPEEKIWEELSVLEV
Description: as §1, §2

[9] = target: T9, MAGEA3 peptide no 1; experiment: peptide ELISA (coated 20mer)
T9 construct: also called MAGEA3 aa 1-20
T9 peptide: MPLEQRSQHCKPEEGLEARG
Description: as §1, §2

[10] = target: T10, MAGEA3 peptide no 13; experiment: peptide ELISA (coated 20mer)
T10 construct: also called MAGEA3 aa 121-140
T10 peptide: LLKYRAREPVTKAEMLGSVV
Description: as §1, §2

[11] = target: T11, MAGEA3 peptide no 21; experiment: peptide ELISA (coated 20mer)
T11 construct: also called MAGEA3 aa 201-220
T11 peptide: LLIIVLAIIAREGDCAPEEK
Description: as §1, §2

[12] = target: T12, MAGEA3 peptide no 17; experiment: peptide ELISA (coated 20mer)
T12 construct: also called MAGEA3 aa 161-180
T12 peptide: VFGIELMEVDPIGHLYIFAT
Description: as §1, §2

[13] = target: T13, MAGEA3 peptide no 5; experiment: peptide ELISA (coated 20mer)
T13 construct: also called MAGEA3 aa 41-60
T13 peptide: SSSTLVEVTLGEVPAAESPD
Description: as §1, §2

[14] = target: T14, MAGEA3 peptide no 2; experiment: peptide ELISA (coated 20mer)
T14 construct: also called MAGEA3 aa 11-30
T14 peptide: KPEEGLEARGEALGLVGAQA
Description: as §1, §2

[15] = target: T15, MAGEA3 peptide no 18; experiment: peptide ELISA (coated 20mer)
T15 construct: also called MAGEA3 aa 171-190
T15 peptide: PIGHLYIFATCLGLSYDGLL
Description: as §1, §2

[16] = target: T16, MAGEA3 peptide no 28; experiment: peptide ELISA (coated 20mer)
T16 construct: also called MAGEA3 aa 271-290
T16 peptide: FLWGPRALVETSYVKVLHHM
Description: as §1, §2

[17] = target: T17, MAGEA3 peptide no 11; experiment: peptide ELISA (coated 20mer)
T17 construct: also called MAGEA3 aa 101-120
T17 peptide: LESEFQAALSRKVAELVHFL
Description: as §1, §2

[18] = target: T18, MAGEA3 peptide no 27; experiment: peptide ELISA (coated 20mer)
T18 construct: also called MAGEA3 aa 261-280
T18 peptide: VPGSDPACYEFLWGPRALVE
Description: as §1, §2

[19] = target: T19, MAGEA3 peptide no 19; experiment: peptide ELISA (coated 20mer)
T19 construct: also called MAGEA3 aa 181-200
T19 peptide: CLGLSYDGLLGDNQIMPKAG
Description: as §1, §2

[20] = target: T20, MAGEA3 peptide no 14; experiment: peptide ELISA (coated 20mer)
T20 construct: also called MAGEA3 aa 131-150
T20 peptide: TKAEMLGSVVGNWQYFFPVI
Description: as §1, §2

[21] = target: T21, MAGEA3 peptide no 12; experiment: peptide ELISA (coated 20mer)
T21 construct: also called MAGEA3 aa 111-130
T21 peptide: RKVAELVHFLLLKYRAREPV
Description: as §1, §2

[22] = target: T22, MAGEA3 peptide no 10; experiment: peptide ELISA (coated 20mer)
T22 construct: also called MAGEA3 aa 91-110
T22 peptide: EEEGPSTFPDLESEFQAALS
Description: as §1, §2

[23] = target: T23, MAGEA3 peptide no 29; experiment: peptide ELISA (coated 20mer)
T23 construct: also called MAGEA3 aa 281-300
T23 peptide: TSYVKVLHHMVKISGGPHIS
Description: as §1, §2

[24] = target: T24, MAGEA3 peptide no 3; experiment: peptide ELISA (coated 20mer)
T24 construct: also called MAGEA3 aa 21-40
T24 peptide: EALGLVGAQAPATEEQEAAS
Description: as §1, §2

[25] = target: T25, MAGEA3 peptide no 15; experiment: peptide ELISA (coated 20mer)
T25 construct: also called MAGEA3 aa 141-160
T25 peptide: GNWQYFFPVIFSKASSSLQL
Description: as §1, §2

[26] = target: T26, MAGEA3 peptide no 26; experiment: peptide ELISA (coated 20mer)
T26 construct: also called MAGEA3 aa 251-270
T26 peptide: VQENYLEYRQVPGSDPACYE
Description: as §1, §2

[27] = target: T27, MAGEA3 peptide no 24; experiment: ELISA on plate-coated 20mer peptide, antibody at 1 µg/ml, anti-human IgG Fc-HRP
T27 construct: also called MAGEA3 aa 231-250
T27 peptide: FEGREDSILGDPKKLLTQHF
Description: as §1, §2

[28] = target: T28, MAGEA3 peptide no 8; experiment: as above
T28 construct: also called MAGEA3 aa 71-90
T28 peptide: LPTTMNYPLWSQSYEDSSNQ
Description: as §1, §2

[29] = target: T29, MAGEA3 peptide no 7; experiment: as above
T29 construct: also called MAGEA3 aa 61-80
T29 peptide: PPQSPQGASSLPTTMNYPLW
Description: as §1, §2

B1: 122G3 (antibody, V domains shown)
VH: QVQLVQSGAEVKKPGASVKVSCKASGYTFTNYAIHWVRQAPGQRLEWMGWINAGKGNTKYSQKFQGRVTITRDTSADTTYMELSSLRSEDTAVYFCAQAGLSSGLYRDYWGQGTPVTVSS
VL: EIVMTQSPATLSVSPGERATLSCRASQSVSSDLAWYQQKRGQAPRLLIYGASTRATGIPARFSGSGSGTEFTLTISSLQSEDFAVYWCQQYNDWPLTFGGGTKVEIN
notes: Patient-derived human antibody made recombinantly; also called human monoclonal antibody 122G3
~0.02 nM: EC50 (read off the curve) [1]
no binding (tested: 1 µg/ml): binding result [3] | binding result [4] | binding result [5] | binding result [6] | binding result [7] | binding result [8] | binding result [9] | binding result [10] | binding result [11] | binding result [12] | binding result [13] | binding result [14] | binding result [15] | binding result [16] | binding result [17] | binding result [18] | binding result [19] | binding result [20] | binding result [21] | binding result [22] | binding result [23] | binding result [24] | binding result [25] | binding result [26]
binds: binding result [27] | binding result [28] | binding result [29]
0.023 nM: EC50 [1]
no binding: binding result [2]
